Measured values taken from publication doi:10.1101/2020.06.02.126235.

Molecular target: AAV2 OBD (Adeno-associated virus 2, UniProt P03132 1-199)
Assay: X-ray crystallography

Chain of AAV2 OBD (P03132 1-199): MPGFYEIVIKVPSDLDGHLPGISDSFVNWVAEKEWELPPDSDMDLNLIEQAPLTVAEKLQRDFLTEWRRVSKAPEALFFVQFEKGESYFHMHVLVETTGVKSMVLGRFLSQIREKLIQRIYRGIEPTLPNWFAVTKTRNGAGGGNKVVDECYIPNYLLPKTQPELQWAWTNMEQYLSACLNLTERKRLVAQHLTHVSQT

ATATGCTCGCTCTT (ssDNA) [ssRBS 14-mer (Site A)]
binding result: binds
